In article PMC9177957 (Nucleic Acids Research, 2022):

Biological target: T1, wildtype NP of influenza A/NT/60/1968 (H3N2) virus (influenza A/NT/60/1968 (H3N2) virus, UniProt P03467 1-498)
T1 construct: not shown: GST, N-terminal, cleaved
Test: pull-down
Conditions: both partners purified

B1: GST-tagged full-length human ANP32B (natural protein)
chain: MDMKRRIHLELRNRTPAAVRELVLDNCKSNDGKIEGLTAEFVNLEFLSLINVGLISVSNLPKLPKLKKLELSENRIFGGLDMLAEKLPNLTHLNLSGNKLKDISTLEPLKKLECLKSLDLFNCEVTNLNDYRESVFKLLPQLTYLDGYDREDQEAPDSDAEVDGVDEEEEDEEGEDEEDEDDEDGEEEEFDEEDDEDEDVEGDEDDDEVSEEEEEFGLDEEDEDEDEDEEEEEGGKGEKRKRETDDEGEDD
notes: also called GST-huANP32B; huANP32B WT; source: E. coli, purified (Glutathione Sepharose, eluted with reduced glutathione); not shown: GST, N-terminal, kept
- binding result: binds

B2: GST-tagged full-length human ANP32A (natural protein)
chain: MEMGRRIHLELRNRTPSDVKELVLDNSRSNEGKLEGLTDEFEELEFLSTINVGLTSIANLPKLNKLKKLELSDNRVSGGLEVLAEKCPNLTHLNLSGNKIKDLSTIEPLKKLENLKSLDLFNCEVTNLNDYRENVFKLLPQLTYLDGYDRDDKEAPDSDAEGYVEGLDDEEEDEDEEEYDEDAQVVEDEEDEDEEEEGEEEDVSGEEEEDEEGYNDGEVDDEEDEEELGEEERGQKRKREPEDEGEDDD
notes: also called GST-huANP32A; huANP32A WT; source: E. coli, purified (Glutathione Sepharose, eluted with reduced glutathione); not shown: GST, N-terminal, kept
- binding result: binds
